Reference: PMC314469, “Protein Interaction Networks by Proteome Peptide Scanning” (PLoS Biology, 2004)

Legend:
Assay in all cases: SPOT array
[1] = target: T1, Boi1 SH3 (BOI1_YEAST), P38041
T1 chain: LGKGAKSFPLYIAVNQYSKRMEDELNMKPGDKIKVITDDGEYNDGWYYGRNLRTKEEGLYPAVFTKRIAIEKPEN

[2] = target: T2, Boi2 SH3 (BOI2_YEAST), P39969
T2 chain: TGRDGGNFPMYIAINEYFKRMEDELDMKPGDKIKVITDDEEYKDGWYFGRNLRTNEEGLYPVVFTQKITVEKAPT

[3] = target: T3, Myo5 SH3 (MYO5_YEAST), Q04439
T3 chain: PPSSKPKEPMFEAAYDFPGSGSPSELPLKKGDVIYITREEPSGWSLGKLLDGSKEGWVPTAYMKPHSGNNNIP

[4] = target: T4, Rvs167 SH3 (RV167_YEAST), P39743
T4 chain: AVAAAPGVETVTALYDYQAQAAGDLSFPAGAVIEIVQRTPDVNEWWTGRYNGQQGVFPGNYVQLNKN

[5] = target: Sho1 SH3 (SHO1_YEAST), P40073
[6] = target: T5, Yfr024 SH3 (LSB3_YEAST), P43603
T5 chain: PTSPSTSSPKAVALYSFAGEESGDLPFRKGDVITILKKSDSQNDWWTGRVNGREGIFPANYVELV

[7] = target: T6, Yhr016c SH3 (YSC84_YEAST), P32793
T6 chain: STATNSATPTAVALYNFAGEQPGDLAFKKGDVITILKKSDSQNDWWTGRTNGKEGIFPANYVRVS

Sequence of Sho1 SH3 (SHO1_YEAST), P40073 (P40073 295-366): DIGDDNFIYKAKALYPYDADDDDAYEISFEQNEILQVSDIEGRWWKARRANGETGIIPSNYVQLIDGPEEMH

| Binder | normalised SPOT signal, Boehringer light units (BLU); mean over the file's lines of this peptide [1] | normalised SPOT signal, Boehringer light units (BLU); mean over the file's lines of this peptide [2] | normalised SPOT signal, Boehringer light units (BLU); mean over the file's lines of this peptide [3] | normalised SPOT signal, Boehringer light units (BLU); mean over the file's lines of this peptide [4] | normalised SPOT signal, Boehringer light units (BLU); mean over the file's lines of this peptide [5] | normalised SPOT signal, Boehringer light units (BLU); mean over the file's lines of this peptide [6] | normalised SPOT signal, Boehringer light units (BLU); mean over the file's lines of this peptide [7] |
| --- | --- | --- | --- | --- | --- | --- | --- |
| KKIAKGDPKIPMQN [YNL155W 157-170] | 779 | 1 | 720 | 147 | 103 | 190 | 89.5 |
| KKHDKLYPKYPSVK [YFL004W 130-143] | 435 | 16.5 | 340 | 61.3 | 114 | 184 | 37.6 |
| KFDAKGRPIPPHPD [YJL042W 327-340] | 460 | 3.5 | 53.5 | 58.6 | 27.1 | 224 | 39.4 |
| KKNKKKVPLNPLAK [YNL050C 247-260] | 541 | 38 | 523 | 65.1 | 102 | 540 | 179 |
| KFFKREYPDIPMIA [YMR190C 828-841] | 201 | 20.2 | 155 | 127 | 359 | 120 | 42.3 |
| KKNDRPSPLKPIQH [YKL101W 860-873] | 2190 | 0 | 341 | 49.2 | 67.4 | 254 | 44.4 |
| KGVLKEYPMRPYGS [YCR068W 315-328] | 251 | 14 | 117 | 38.3 | 78.4 | 1160 | 134 |
| KHEPKKSPTTPALA [YDL220C 702-715] | 442 | 36.2 | 726 | 30.5 | 21.3 | 19.7 | 26.8 |
| KIVRRDYPSTPVIV [YOR019W 147-160] | 235 | 3.2 | 366 | 206 | 33.5 | 267 | 17.5 |
| KKIIKDVPGTPSDK [YLR079W 164-177] | 3810 | 5.6 | 163 | 65.3 | 155 | 16.7 | 20 |
| KEFFRLTPNQPVGL [YOR168W 628-641] | 136 | -0 | 43.8 | 175 | 25.9 | 166 | 14.9 |
| KIVERGPPYPPDLR [YDR464W 649-662] | 74.9 | 4.7 | 138 | 102 | 14.8 | 93.1 | 20.3 |
| KITKKLGPKLPKAS [YNL297C 1291-1304] | 198 | 21 | 681 | 187 | 47.2 | 490 | 43.5 |
| KIIKKSSPSVPKEE [YNL265C 154-167] | 389 | 0.6 | 242 | 176 | 1230 | 191 | 12.1 |
| KKKKKNGPGAPQGY [YGR245C 314-327] | 329 | 20.2 | 329 | 23.5 | 106 | 159 | 56.7 |
| KKHDKLHPNYPSVK [YPL019C 129-142] | 674 | 33.3 | 407 | 415 | 72.4 | 164 | 12.6 |
